In PMC4190070 (Nature structural & molecular biology, 2014):

Molecular target: T1, SA2–Scc1 cohesin subcomplex (SA2 80–1060, Scc1 281–420), purified recombinant (human, UniProt Q8N3U4;O60216)
T1 sequence 1: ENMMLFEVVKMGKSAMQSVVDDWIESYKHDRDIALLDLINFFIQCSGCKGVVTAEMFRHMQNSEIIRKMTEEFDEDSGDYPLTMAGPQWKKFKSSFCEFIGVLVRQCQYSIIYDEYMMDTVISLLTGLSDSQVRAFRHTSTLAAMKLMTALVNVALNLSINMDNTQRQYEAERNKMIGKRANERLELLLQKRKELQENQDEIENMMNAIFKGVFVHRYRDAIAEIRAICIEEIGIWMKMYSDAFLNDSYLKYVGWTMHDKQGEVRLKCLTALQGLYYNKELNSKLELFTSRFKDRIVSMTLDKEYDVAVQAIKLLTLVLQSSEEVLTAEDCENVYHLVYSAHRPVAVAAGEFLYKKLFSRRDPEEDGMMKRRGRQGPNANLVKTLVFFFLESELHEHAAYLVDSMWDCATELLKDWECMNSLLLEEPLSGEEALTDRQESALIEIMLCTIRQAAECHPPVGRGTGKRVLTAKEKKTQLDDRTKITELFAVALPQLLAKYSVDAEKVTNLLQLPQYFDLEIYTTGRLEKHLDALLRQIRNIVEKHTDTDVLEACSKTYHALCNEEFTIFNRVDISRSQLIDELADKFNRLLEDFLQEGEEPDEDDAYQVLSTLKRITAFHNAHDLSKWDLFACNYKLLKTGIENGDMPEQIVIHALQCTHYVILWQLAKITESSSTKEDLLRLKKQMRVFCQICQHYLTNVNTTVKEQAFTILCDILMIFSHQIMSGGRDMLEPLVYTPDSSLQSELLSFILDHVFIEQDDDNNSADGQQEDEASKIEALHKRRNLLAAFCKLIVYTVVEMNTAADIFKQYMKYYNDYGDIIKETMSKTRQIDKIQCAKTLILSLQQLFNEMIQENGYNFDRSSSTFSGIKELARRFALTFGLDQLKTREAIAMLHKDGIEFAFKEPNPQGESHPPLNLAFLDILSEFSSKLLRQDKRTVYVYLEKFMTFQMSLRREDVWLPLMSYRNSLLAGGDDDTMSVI
T1 sequence 2: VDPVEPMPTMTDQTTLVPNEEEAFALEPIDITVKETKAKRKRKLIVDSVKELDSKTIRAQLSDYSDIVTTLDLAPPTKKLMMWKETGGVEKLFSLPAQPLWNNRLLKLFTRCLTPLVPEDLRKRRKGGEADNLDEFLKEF
Test: ITC

Kd: 618 nM | stoichiometry N: 1
Binder: KSENKKTVPQKKMHKSVSSNDAYNFNLEEGVHLTPFRQKVSC [unphosphorylated Sgo1 peptide (residues 313–353)]
